Patent US20220153832A1 (PIONYR IMMUNOTHERAPEUTICS, published 2022)

T1: Mouse MARCO, full length, on cells (mouse, UniProt Q60754 1-518)
T1 construct: whole, on cells; the cell type is named under assay; also called muMARCO; MuMARCO
T1 sequence (looked up): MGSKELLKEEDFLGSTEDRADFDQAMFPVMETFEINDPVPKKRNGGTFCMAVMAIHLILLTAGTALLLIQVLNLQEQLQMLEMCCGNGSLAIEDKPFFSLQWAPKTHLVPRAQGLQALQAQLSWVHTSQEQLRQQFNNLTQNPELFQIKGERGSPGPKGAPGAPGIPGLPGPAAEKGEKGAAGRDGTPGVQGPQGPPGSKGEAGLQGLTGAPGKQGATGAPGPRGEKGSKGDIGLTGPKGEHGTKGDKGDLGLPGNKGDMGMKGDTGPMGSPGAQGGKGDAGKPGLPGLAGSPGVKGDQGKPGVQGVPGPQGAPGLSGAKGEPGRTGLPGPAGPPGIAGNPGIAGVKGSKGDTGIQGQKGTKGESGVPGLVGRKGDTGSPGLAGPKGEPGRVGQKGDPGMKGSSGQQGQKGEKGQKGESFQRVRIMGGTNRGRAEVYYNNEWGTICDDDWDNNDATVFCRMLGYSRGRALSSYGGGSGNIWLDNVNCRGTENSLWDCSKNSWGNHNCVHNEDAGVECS

T2: N-terminal his-tagged mouse MARCO protein, recombinant (mouse, UniProt Q60754 150-518)
T2 construct: The entry holds the His tag, the CLD and the SRCR domain; also called mMARCO (RG3016); PI-RG-3016
T2 sequence: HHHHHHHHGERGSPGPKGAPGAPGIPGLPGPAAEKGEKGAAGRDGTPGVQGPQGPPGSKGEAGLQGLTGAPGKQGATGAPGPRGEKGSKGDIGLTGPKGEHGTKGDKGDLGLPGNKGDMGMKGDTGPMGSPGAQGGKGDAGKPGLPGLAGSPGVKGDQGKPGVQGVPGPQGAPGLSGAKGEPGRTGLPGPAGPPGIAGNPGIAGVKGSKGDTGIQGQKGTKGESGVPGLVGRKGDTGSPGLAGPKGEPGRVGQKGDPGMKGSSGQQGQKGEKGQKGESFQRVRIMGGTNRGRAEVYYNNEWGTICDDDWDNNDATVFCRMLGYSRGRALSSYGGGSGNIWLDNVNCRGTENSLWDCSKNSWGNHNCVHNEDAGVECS

T3: hMARCO(His-CLD-SRCR) (RG3033) (human, UniProt Q9UEW3 147-520)
T3 construct: also called wild type hMARCO
T3 sequence: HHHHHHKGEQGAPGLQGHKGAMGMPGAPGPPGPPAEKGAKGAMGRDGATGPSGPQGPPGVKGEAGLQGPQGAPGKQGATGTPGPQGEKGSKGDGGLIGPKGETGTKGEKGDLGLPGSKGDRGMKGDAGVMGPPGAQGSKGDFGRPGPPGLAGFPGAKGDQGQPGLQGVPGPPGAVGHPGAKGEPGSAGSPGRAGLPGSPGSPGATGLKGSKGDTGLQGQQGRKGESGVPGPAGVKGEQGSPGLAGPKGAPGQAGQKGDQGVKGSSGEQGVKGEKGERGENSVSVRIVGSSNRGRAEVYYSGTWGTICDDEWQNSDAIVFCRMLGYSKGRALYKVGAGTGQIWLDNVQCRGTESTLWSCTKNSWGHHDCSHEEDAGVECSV


What was measured:
[1] = biological target: T1, Mouse MARCO, full length, on cells; assay: competition with AF488 E. coli binding to muMARCO 293T cells, flow cytometry
[2] = biological target: T2, N-terminal his-tagged mouse MARCO …; assay: ELISA on mMARCO ECD with 2 mM Ca2+, A450-A620
[3] = biological target: T4, hVar3 (RG3036) (human, UniProt Q9UEW3 147-520); assay: ELISA on recombinant hVar3 protein, A450
T4 construct: Human MARCO His-CLD-SRCR with Q452D, Y472S and K473S (already in the entry); also called recombinant human SRCR MARCO hVar3 protein

[4] = biological target: T2, N-terminal his-tagged mouse MARCO …; assay: Biacore
[5] = biological target: T1, Mouse MARCO, full length, on cells; assay: flow cytometry, 293T (muMARCO)
[6] = biological target: T3, hMARCO(His-CLD-SRCR) (RG3033); assay: ProbeLife Gator study, statement on the loaded antibodies
In short: (§1)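 Antibody pairing on MARCO was assessed by biolayer interferometry on ProbeLife probes. In tandem format, 200 nM His-tagged MARCO was loaded on anti-His probes for 120 s, then a 60 s baseline, a first antibody at 200 nM, then a second antibody at 100-200 nM. In sandwich format, the first antibody (200 nM) was captured on anti-Fc probes for 120 s, followed by 200 nM MARCO and then the second antibody (200 nM), each for 120 s.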

[7] = biological target: T2, N-terminal his-tagged mouse MARCO …; assay: as above
In short: as §1

Row | EC50 [1] [nM] | EC50 (read off the curve) [2] [nM] | binding result [3] | Kd [4] [nM] | EC50 [5] [nM] | binding result [6] | binding result [7] | Binder
1 | 1.81 | ~0.07 | no binding (tested: 20 nM) | < 0.02 | 1.1 |  |  | PI-3008-AB (antibody, mouse IgG2a, kappa, V domains shown, Recombinant anti-mouse MARCO antibody with mouse IgG2a Fc, from PI-HX-3016) VH: EVQLVESGGGLVKPGASLKLSCVASGFTFSDDWMNWVRQTPGKAMEWIGDIKYDGSYTNYVPSLKNRLTISRDNAKNTLYLQMTNVRSEDTATYYCTSGGVFDYWGQGVMVTVSS VL: EIVLSQSPTTMAASPGEKVTITCRASSSVSYMHWFQQKSGTSPKPWIYDTSKLASGVPDRFSGSGSGTSYSLTISSMEAEDAATYYCLQRSGYPPTFGAGTKLEVKR
2 |  |  | binds |  |  | binds | binds | PI-3035-AB (antibody, mouse IgG2a, kappa, V domains shown, Mouse IgG2a chimera derived from PI-HX-3092; also called HX3092 (A mutation) - mIgG2a) VH: QVQLKESGPGLVQPSQTLSLTCTVSGFSLTSYTLSWVRQPPGKGLEWIGAIWGGDNTDYNSALKSRLSISRDTSKSQVLLKMNSLQTEDTAIYFCTRELGGSFDYWGQGVMVTVSS VL: DIQMTQSPPVLSASVGDRVTLSCKTSQNINKKLDWYQQKHGEAPKLLIYYTNNLQTGIPSRFSGSGSGTDFTLTISTLQPEDVATYYCYQYDSGFTFGAGTKLELKR
